Source: article PMC8699698, “Oligomeric States and Hydrodynamic Properties of Lysyl Oxidase-Like 2” (Biomolecules, 2021)
Where “and” joins values, the source holds several entries; their conditions need not be identical. Identical values can stand only once.

Assays:
[1] = target: T1, full-length lysyl oxidase-like 2 (fl-LOXL2), wild type, Q9Y4K0; assay: native gel or EMSA; Native PAGE, NativePAGE 4 to 16% Bis-Tris gels, 125 V for 2 h; self-association of purified LOXL2 forms; details: remark: other sources report otherwise
T1 chain: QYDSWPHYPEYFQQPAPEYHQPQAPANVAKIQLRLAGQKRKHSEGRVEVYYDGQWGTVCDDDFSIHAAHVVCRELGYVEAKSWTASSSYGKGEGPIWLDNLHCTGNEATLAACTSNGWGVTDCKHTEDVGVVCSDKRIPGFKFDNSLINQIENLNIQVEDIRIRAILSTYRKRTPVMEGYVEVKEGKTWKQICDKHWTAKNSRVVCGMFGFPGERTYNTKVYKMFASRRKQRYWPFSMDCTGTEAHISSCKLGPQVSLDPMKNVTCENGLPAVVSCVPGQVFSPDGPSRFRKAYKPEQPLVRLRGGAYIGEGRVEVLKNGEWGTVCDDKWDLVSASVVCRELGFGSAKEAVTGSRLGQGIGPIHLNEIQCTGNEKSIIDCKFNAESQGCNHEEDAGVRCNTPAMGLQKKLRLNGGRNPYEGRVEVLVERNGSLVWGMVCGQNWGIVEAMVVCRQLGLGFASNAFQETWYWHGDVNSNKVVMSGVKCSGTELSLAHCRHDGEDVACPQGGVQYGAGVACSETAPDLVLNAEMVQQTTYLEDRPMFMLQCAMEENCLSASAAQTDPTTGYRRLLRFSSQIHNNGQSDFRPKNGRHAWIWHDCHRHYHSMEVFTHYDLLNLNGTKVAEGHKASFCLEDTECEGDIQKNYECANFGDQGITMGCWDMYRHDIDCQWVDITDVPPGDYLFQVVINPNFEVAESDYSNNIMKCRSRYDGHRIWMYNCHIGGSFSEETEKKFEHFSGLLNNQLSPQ

[2] = target: T1, full-length lysyl oxidase-like 2 …; assay: AUC; Sedimentation velocity, 20 °C, 40,000 RPM, 50 mM HEPES pH 8.0, fl-LOXL2 at 0.88, 0.30 and 0.088 mg/mL, c(s) model of SEDFIT; self-association; details: remark: other sources report otherwise
[3] = target: T1, full-length lysyl oxidase-like 2 …; assay: SEC-MALS; Superdex 200 10/300, 50 mM Tris pH 8.0, 150 mM NaCl, 0.01% sodium azide; fl-LOXL2 at concentrations from 0.08 to 1.6 uM; self-association; details: remark: other sources report otherwise
[4] = target: the molecule itself; assay: native gel or EMSA; Native PAGE, NativePAGE 4 to 16% Bis-Tris gels, 125 V for 2 h; self-association of purified LOXL2 forms

B1: full-length lysyl oxidase-like 2 (fl-LOXL2), wild type, Q9Y4K0 26-774 (enzyme)
chain: QYDSWPHYPEYFQQPAPEYHQPQAPANVAKIQLRLAGQKRKHSEGRVEVYYDGQWGTVCDDDFSIHAAHVVCRELGYVEAKSWTASSSYGKGEGPIWLDNLHCTGNEATLAACTSNGWGVTDCKHTEDVGVVCSDKRIPGFKFDNSLINQIENLNIQVEDIRIRAILSTYRKRTPVMEGYVEVKEGKTWKQICDKHWTAKNSRVVCGMFGFPGERTYNTKVYKMFASRRKQRYWPFSMDCTGTEAHISSCKLGPQVSLDPMKNVTCENGLPAVVSCVPGQVFSPDGPSRFRKAYKPEQPLVRLRGGAYIGEGRVEVLKNGEWGTVCDDKWDLVSASVVCRELGFGSAKEAVTGSRLGQGIGPIHLNEIQCTGNEKSIIDCKFNAESQGCNHEEDAGVRCNTPAMGLQKKLRLNGGRNPYEGRVEVLVERNGSLVWGMVCGQNWGIVEAMVVCRQLGLGFASNAFQETWYWHGDVNSNKVVMSGVKCSGTELSLAHCRHDGEDVACPQGGVQYGAGVACSETAPDLVLNAEMVQQTTYLEDRPMFMLQCAMEENCLSASAAQTDPTTGYRRLLRFSSQIHNNGQSDFRPKNGRHAWIWHDCHRHYHSMEVFTHYDLLNLNGTKVAEGHKASFCLEDTECEGDIQKNYECANFGDQGITMGCWDMYRHDIDCQWVDITDVPPGDYLFQVVINPNFEVAESDYSNNIMKCRSRYDGHRIWMYNCHIGGSFSEETEKKFEHFSGLLNNQLSPQ
modifications: here or on the partner: lysine tyrosylquinone (LTQ) cofactor (precursor residues Lys653 and Tyr689), Cu2+ bound; N-glycans (N-glycosylation sites Asn288, Asn455, Asn644); lysine tyrosylquinone (LTQ) cofactor (precursor residues Lys653 and Tyr689), Cu2+ bound; N-glycans (N-glycosylation sites Asn288, Asn455, Asn644)
stoichiometry N [1]: 2 and 4
percent of dimer [2]: 11.6%
percent of monomer [2]: 83.6%
percent of tetramer and pentamer together [2]: 4.7%
stoichiometry N [2]: 4 and 5 and 2
stoichiometry N [3]: 2 and 4

B2: R314A/R316A/K317Q-LOXL2 (AAQ-LOXL2, a PACE4 cleavage site null mutant), full length (enzyme, UniProt Q9Y4K0 26-774, looked up)
chain: QYDSWPHYPEYFQQPAPEYHQPQAPANVAKIQLRLAGQKRKHSEGRVEVYYDGQWGTVCDDDFSIHAAHVVCRELGYVEAKSWTASSSYGKGEGPIWLDNLHCTGNEATLAACTSNGWGVTDCKHTEDVGVVCSDKRIPGFKFDNSLINQIENLNIQVEDIRIRAILSTYRKRTPVMEGYVEVKEGKTWKQICDKHWTAKNSRVVCGMFGFPGERTYNTKVYKMFASRRKQRYWPFSMDCTGTEAHISSCKLGPQVSLDPMKNVTCENGLPAVVSCVPGQVFSPDGPSAFAQAYKPEQPLVRLRGGAYIGEGRVEVLKNGEWGTVCDDKWDLVSASVVCRELGFGSAKEAVTGSRLGQGIGPIHLNEIQCTGNEKSIIDCKFNAESQGCNHEEDAGVRCNTPAMGLQKKLRLNGGRNPYEGRVEVLVERNGSLVWGMVCGQNWGIVEAMVVCRQLGLGFASNAFQETWYWHGDVNSNKVVMSGVKCSGTELSLAHCRHDGEDVACPQGGVQYGAGVACSETAPDLVLNAEMVQQTTYLEDRPMFMLQCAMEENCLSASAAQTDPTTGYRRLLRFSSQIHNNGQSDFRPKNGRHAWIWHDCHRHYHSMEVFTHYDLLNLNGTKVAEGHKASFCLEDTECEGDIQKNYECANFGDQGITMGCWDMYRHDIDCQWVDITDVPPGDYLFQVVINPNFEVAESDYSNNIMKCRSRYDGHRIWMYNCHIGGSFSEETEKKFEHFSGLLNNQLSPQ
notes: Lysyl oxidase-like 2 (LOXL2), full-length form with the PACE4 cleavage site mutated (text: R314A/R316A/K317Q); Secreted protein; also called R315A/R316A/K317Q mutant form of LOXL2
stoichiometry N [4]: 2 and 4

B3: K317R-LOXL2, full-length form (furin-cleavage site engineered) (enzyme, UniProt Q9Y4K0 26-774, looked up)
chain: QYDSWPHYPEYFQQPAPEYHQPQAPANVAKIQLRLAGQKRKHSEGRVEVYYDGQWGTVCDDDFSIHAAHVVCRELGYVEAKSWTASSSYGKGEGPIWLDNLHCTGNEATLAACTSNGWGVTDCKHTEDVGVVCSDKRIPGFKFDNSLINQIENLNIQVEDIRIRAILSTYRKRTPVMEGYVEVKEGKTWKQICDKHWTAKNSRVVCGMFGFPGERTYNTKVYKMFASRRKQRYWPFSMDCTGTEAHISSCKLGPQVSLDPMKNVTCENGLPAVVSCVPGQVFSPDGPSRFRRAYKPEQPLVRLRGGAYIGEGRVEVLKNGEWGTVCDDKWDLVSASVVCRELGFGSAKEAVTGSRLGQGIGPIHLNEIQCTGNEKSIIDCKFNAESQGCNHEEDAGVRCNTPAMGLQKKLRLNGGRNPYEGRVEVLVERNGSLVWGMVCGQNWGIVEAMVVCRQLGLGFASNAFQETWYWHGDVNSNKVVMSGVKCSGTELSLAHCRHDGEDVACPQGGVQYGAGVACSETAPDLVLNAEMVQQTTYLEDRPMFMLQCAMEENCLSASAAQTDPTTGYRRLLRFSSQIHNNGQSDFRPKNGRHAWIWHDCHRHYHSMEVFTHYDLLNLNGTKVAEGHKASFCLEDTECEGDIQKNYECANFGDQGITMGCWDMYRHDIDCQWVDITDVPPGDYLFQVVINPNFEVAESDYSNNIMKCRSRYDGHRIWMYNCHIGGSFSEETEKKFEHFSGLLNNQLSPQ
notes: Lysyl oxidase-like 2 (LOXL2), K317R mutant, the full-length species in the K317R-LOXL2 lane of the native gel; the bands at ~175 and ~340 kDa are ascribed to its full-length form; also called K317R mutant
stoichiometry N [4]: 2 and 4
